Data from patent publication US20180002403A1 (published 2018).
Read-outs that look alike come from different tables or passages of the source.

Legend:
Experiment in all cases: BIAcore
recombinant IL-17RA [1] = target: T1, recombinant IL-17RA (human, UniProt Q96F46 33-320)
recombinant IL-17RA [2] = target: T1, recombinant IL-17RA; remark: listed apart in the source
[3] = target: T2, Recombinant human IL-17A (Peprotech AF-200-17) (human, UniProt Q16552 24-155)
[4] = target: T2, Recombinant human IL-17A (Peprotech …); remark: listed apart in the source

T2 sequence (Q16552 24-155): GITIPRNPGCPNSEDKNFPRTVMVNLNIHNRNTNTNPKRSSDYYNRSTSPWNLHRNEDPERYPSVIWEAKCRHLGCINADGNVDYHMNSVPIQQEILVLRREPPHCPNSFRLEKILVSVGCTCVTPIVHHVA

Kd (recombinant IL-17RA [1]) [nM] | Kd (recombinant IL-17RA [2]) [nM] | Kd [3] [nM] | Kd [4] [nM] | Binder
6 | 6 | – | – | clone 2.1 VH (VHH) VHH: QVQLVQSGAEVKKPGASVKVSCKASGYPFTSYDINWVRQATGQSLEWMGWMNPNSGDTVYAQKFQGRVTMTRNTSISTAYMELSSLRSEDTAVYFCARGRRDDWKNNYWGQGTLVTVSS
– | 1.4 | – | – | clone 2.2 VH (VHH) VHH: QVQLVQSGAEVKKPGASVKVSCKASGYPFTSYDINWVRQATGRSLEWMGWMNPTNGNTVYAQKFQDRVTMTRNTSISTAYMELSSLRSEDTAVYFCARGRRDDWKNNYWGQGTLVTVSS
– | – | 5 | 5 | clone 1.1 VH (VHH) VHH: EVQLVESGGGLVQPGGSLRLSCAASGFTFSSYSMYWVRQAPGKGLEWVANIKQDGSEKYYVDSVKGRFTISRDNAKNSLFLQMNSLRAEDTAVYYCAKGEILPLHFDYWGQGTLVTVSS
– | – | – | 0.63 | clone 1.6 VH (VHH) VHH: EVQLVESGGGLVQPGGSLRLSCAASGFTFSSYSMYWVRQAPGKGLEWVAEIKQDGSEQYYVDSVKGRFTISRDNAKNSLYLQMNSLRAEDTAVYYCAKGEILPLYFDYWGQGTLVTVSS
– | – | – | 1 | clone 1.10 VH (VHH) VHH: VQLVESGGGLVQPGGSLRLSCAASGFTFSSYRMYWVRQAPGKGLEWVASIEQDGSEEYYVDSVKGRFTISRDNAKKSLFLQMNSLRAEDTAVYYCAKGEILPLYFDYWGQGTLVTVSS
